Reference: patent US20140303084
Where a chain is given by its changes, count along the chain named.

Columns and labels:
[1] = system: T1, (PEG)27-KLTCLASYCWLF
T1 sequence: KLTCLASYCWLF

[2] = system: T2, Biotin-PEG2-LYTAWIKCQFARLPGCALSGRW
T2 sequence: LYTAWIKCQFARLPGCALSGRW

[3] = system: T3, CGGSGGRRAPGKLQCLASYCWLFWTGIAGGSGGC
T3 sequence: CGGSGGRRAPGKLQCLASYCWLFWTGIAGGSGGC

[4] = system: T4, Dab-LTCLASYCWLF
T4 sequence: XLTCLASYCWLF

[5] = system: T5, GYRVPVGGLV RRAHG KLTCLASYCWLFWTGIA
T5 sequence: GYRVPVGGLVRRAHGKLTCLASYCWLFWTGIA

[6] = system: T6, KITCLASYCWLF
T6 sequence: KLTCLASYCWLF

[7] = system: T7, KLT-Glu-LASY-Lys-WLF
T7 sequence: KLTELASYKWLF

[8] = system: T8, KLTCL-Dpr-SYCWLF
T8 sequence: KLTCLXSYCWLF

[9] = system: T9, KLTCLASYCQLF
T9 sequence: KLTCLASYCQLF

[10] = system: T10, KLTCLASYCWLF-COOH
T10 sequence: KLTCLASYCWLF

[11] = system: T11, KLTCLAsYCWLF
T11 sequence: KLTCLASYCWLF

[12] = system: T12, MQIRQAHQPR RSAPQ KLTCLASYCWLFWTGIA
T12 sequence: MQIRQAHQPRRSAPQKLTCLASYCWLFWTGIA

[13] = system: T13, PRIRTVGPGSRSASGKLTCLASYCWLFLTGIA
T13 sequence: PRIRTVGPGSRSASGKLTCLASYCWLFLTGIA

[14] = system: T14, PRIRTVGPGSRSASGKLTCLASYCWLFWTGI
T14 sequence: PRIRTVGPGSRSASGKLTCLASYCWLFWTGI

[15] = system: T15, PRIRTVGPSSRSASGKLTCLASYCWLFWTGIA
T15 sequence: T13 sequence with G9S, L28W

[16] = system: T16, PSIRTVGPGSRSASGKLTCLASYCWLFWTGIA
T16 sequence: T13 sequence with R2S, L28W

[17] = system: T17, PTDTGPVISG LRAPG KLTCLASYCWLFWTGIA
T17 sequence: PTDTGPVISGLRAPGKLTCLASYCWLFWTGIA

[18] = system: T18, RAAPGKLQCLASYCWLFWTGIA
T18 sequence: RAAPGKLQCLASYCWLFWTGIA

[19] = system: T19, RCAQSRLPWLVSYCWLFSPYGM
T19 sequence: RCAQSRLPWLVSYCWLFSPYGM

[20] = system: T20, RK(PEG2-Biotin)APGKLTCLASYCWLFWTGIA
T20 sequence: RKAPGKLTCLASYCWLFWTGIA

[21] = system: T21, RQLWNKLTCLASYCALIGLSGT
T21 sequence: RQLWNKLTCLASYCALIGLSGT

[22] = system: T22, RRAPGKCTALASYCWLFWTGIA-CONH2
T22 sequence: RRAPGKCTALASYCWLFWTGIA

[23] = system: T23, RRAPGKLQCLASYCWLFW
T23 sequence: RRAPGKLQCLASYCWLFW

[24] = system: T24, RRAPGKLT-Asp-LASY-Dap-WLFWTGIA-COOH
T24 sequence: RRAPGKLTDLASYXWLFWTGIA

[25] = system: T25, RRAPGKLT-Lys-LASY-Asp-WLFWTGIA-CONH2
T25 sequence: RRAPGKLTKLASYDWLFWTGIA

[26] = system: T26, RRAPGKLTC-MeLeu-ASYCWLFWTGIA
T26 sequence: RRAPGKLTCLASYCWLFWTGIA

[27] = system: T27, RRAPGKLTCLA-MeSer-YCWLFWTGIA
T27 sequence: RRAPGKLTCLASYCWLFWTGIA

[28] = system: T28, RRAPGKLTCLASYAWLCWTGIA-COOH
T28 sequence: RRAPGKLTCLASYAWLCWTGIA

[29] = system: T29, RRAPGKLTCLASYCWLF FTGVA RSTTATTNTQ
T29 sequence: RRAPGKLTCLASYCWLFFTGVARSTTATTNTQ

[30] = system: T30, RRAPGKLTCLASYCWLF GSGIS LSRAPESAAP
T30 sequence: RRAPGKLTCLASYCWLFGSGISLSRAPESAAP

[31] = system: T31, RRAPGKLTCLASYCWLF LGGIA PEGASTRTAN
T31 sequence: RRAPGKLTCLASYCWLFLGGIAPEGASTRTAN

[32] = system: T32, RRAPGKLTCLASYCWLF WTTWT TAPTTPPLTT
T32 sequence: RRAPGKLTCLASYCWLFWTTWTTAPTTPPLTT

[33] = system: T33, RRAPGKLTCLASYCWLFWK(PEG2-Biotin)GIA
T33 sequence: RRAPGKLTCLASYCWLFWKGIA

[34] = system: T34, RRAPGKLTCLASYCWLFWTGK(PEG2-Biotin)A
T34 sequence: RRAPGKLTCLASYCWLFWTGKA

[35] = system: T35, RRAPGKLTCLASYCWLFWTK(PEG2-Biotin)IA
T35 sequence: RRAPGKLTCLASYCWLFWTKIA

[36] = system: T36, RRAPGKLTCLASYCWLFWtGIA
T36 sequence: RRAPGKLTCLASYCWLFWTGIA

[37] = system: T37, RRAPGKLTcLASYCWLFWTGIA
T37 sequence: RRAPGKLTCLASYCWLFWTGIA

[38] = system: T38, RSQGRKLTCLASYCWLFLVVHR
T38 sequence: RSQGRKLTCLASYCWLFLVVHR

[39] = system: T39, SKQARPISPDrRAAGKLTCLASYCWLFWTGIA
T39 sequence: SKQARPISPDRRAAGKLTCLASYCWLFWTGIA

[40] = system: T40, SKQGRPISPArRAAGKLTCLASYCWLFWTGIA
T40 sequence: T39 sequence with A4G, D10A

[41] = system: T41, SKQGRPISPDrRAAGKLTCLASYCW-NMeLeu-FWTGIA
T41 sequence: T39 sequence with A4G

[42] = system: T42, SKQGRPISPDrRAAGKLTCLASYCWLFWTGIA-PEG4-C(N-PEG5k maleimide)
T42 sequence: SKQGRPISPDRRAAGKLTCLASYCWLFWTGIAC

[43] = system: T43, TSGPFGFGGS SRAQG KLTCLASYCWLFWTGIA
T43 sequence: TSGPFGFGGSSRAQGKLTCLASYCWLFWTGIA

[44] = system: T44, compound 10
T44 sequence: KLTCLASYCWLFWTGIA

[45] = system: T45, compound B
T45 sequence: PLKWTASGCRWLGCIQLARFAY

[46] = system: T46, k-MeLeu-TCLAS-(Y-OMe)-CWLF
T46 sequence: KLTCLASYCWLF

[47] = system: T47, rRAPGKLTCLASYCWLFWTGIA-PEG16-Lys(PEG2-Biotin)-PEG16-Lys(palmitoyl)
T47 sequence: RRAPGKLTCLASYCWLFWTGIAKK

[48] = system: T48, rrapgkltclasycwlfwtgia (inverso)
T48 sequence: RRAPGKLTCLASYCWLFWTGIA

human Factor IXa
> 1.9: Vmax, FXa generation assay [41]
> 2: Vmax, FXa generation assay [1] | Vmax, FXa generation assay [5] | Vmax, FXa generation assay [6] | Vmax, FXa generation assay [11] | Vmax, FXa generation assay [12] | Vmax, FXa generation assay [18] | Vmax, FXa generation assay [22] | Vmax, FXa generation assay [23] | Vmax, FXa generation assay [29] | Vmax, FXa generation assay [32] | Vmax, FXa generation assay [35] | Vmax, FXa generation assay [48]
(++): Vmax, FXa generation assay; (++) means 1-2 [3] | Vmax, FXa generation assay; (++) means 1-2 [4] | Vmax, FXa generation assay; (++) means 1-2 [7] | Vmax, FXa generation assay; (++) means 1-2 [8] | Vmax, FXa generation assay; (++) means 1-2 [10] | Vmax, FXa generation assay; (++) means 1-2 [17] | Vmax, FXa generation assay; (++) means 1-2 [20] | Vmax, FXa generation assay; (++) means 1-2 [21] | Vmax, FXa generation assay; (++) means 1-2 [24] | Vmax, FXa generation assay; (++) means 1-2 [25] | Vmax, FXa generation assay; (++) means 1-2 [26] | Vmax, FXa generation assay; (++) means 1-2 [27] | Vmax, FXa generation assay; (++) means 1-2 [33] | Vmax, FXa generation assay; (++) means 1-2 [34] | Vmax, FXa generation assay; (++) means 1-2 [36] | Vmax, FXa generation assay; (++) means 1-2 [37] | Vmax, FXa generation assay; (++) means 1-2 [38] | Vmax, FXa generation assay; (++) means 1-2 [43] | Vmax, FXa generation assay with hFIXa; (++) means 1-2 [44] | Vmax, FXa generation assay with hFIXa; (++) means 1-2 [45]
> 0.5: Vmax, FXa generation assay [28] | Vmax, FXa generation assay [42]
> 3: Vmax, FXa generation assay [9] | Vmax, FXa generation assay [13] | Vmax, FXa generation assay [14] | Vmax, FXa generation assay [15] | Vmax, FXa generation assay [16] | Vmax, FXa generation assay [30] | Vmax, FXa generation assay [31] | Vmax, FXa generation assay [39] | Vmax, FXa generation assay [40] | Vmax, FXa generation assay [46] | Vmax, FXa generation assay [47]
> 1.5: Vmax, FXa generation assay [2] | Vmax, FXa generation assay [19]
